Laboratory results taken from the supplement of paper PMC7877785.
± gives the uncertainty stated by the source.

Test: self-splicing fitness, log relative to wild type (ln ratio); higher = more splicing; Tetrahymena group I intron in knt gene, E. coli kanamycin selection, DiMSum; sequences stand for … in CUCUCU…GGAGGGAAAAGUUAUCAGGCAUGCACCUGGUAGCUAGUCUUUAAACCAAUAGAUUGCAUCGGUUUAAAAGGCAAGACCGUCAAAUUGCGGGAAAGGGGUCAACAGCCGUUCAGUACCAAGUCUCAGGGGAAACUUUGAGAUGGCCUUGCAAAGGGUAUGGUAAUAAGCUGACGGACAUGGUCCUAACCACGCAGCCAAGUCCUAAGUCAACAGAUCUUCUGUUGAUAUGGAUGCAGUUCACAGACUAAAUGUCGGUCGGGGAAGAUGUAUUCUUCUCAUAAGAUAUAGUCGGACCUCUCCUUAAUGGGAGCUAGCGGAUGAAGUGAUGCAACACUGGAGCCGCUGGGAACUAAUUUGUAUGCGAAAGUAUAUUGAUUAGUUUUGGAGUACUCGUGGUCG
Method in brief: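 Colonies from six replicate transformations of E. coli BL21(DE3) were pooled and amplicon-sequenced on an Illumina HiSeq 2500. The library placed an intron with all eight P1ex-region nucleotides randomised inside the knt kanamycin-resistance gene on pET-22b(+), and cells grew overnight at 37°C or 30°C on LB agar with or without 25 μg/mL kanamycin (plus 100 μg/mL carbenicillin, 50 μM IPTG, 0.2% rhamnose). Fitness is the DiMSum error-weighted combination of wild-type-normalised replicate fold changes, kanamycin versus none.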

ACGCAGCAAUAUUACGGACA
self-splicing fitness (ln) (30 °C): -1.29 ± 0.13 | self-splicing fitness (ln) (37 °C): -1.13 ± 0.14

UACAAGCAAUAUUACGCCGC
self-splicing fitness (ln) (37 °C): -2.06 ± 0.43

AUGUAGCAAUAUUACGCGGA
self-splicing fitness (ln) (30 °C): -2.41 ± 0.3 | self-splicing fitness (ln) (37 °C): -1.09 ± 0.2

GUCCAGCAAUAUUACGAUCG
self-splicing fitness (ln) (30 °C): -1.8 ± 0.14 | self-splicing fitness (ln) (37 °C): -1.54 ± 0.14

AGUUAGCAAUAUUACGAGGC
self-splicing fitness (ln) (30 °C): -3.83 ± 0.27 | self-splicing fitness (ln) (37 °C): -3.27 ± 0.23

UUACAGCAAUAUUACGGCAG
self-splicing fitness (ln) (30 °C): -0.142 ± 0.077 | self-splicing fitness (ln) (37 °C): 0.248 ± 0.11

CUACAGCAAUAUUACGUGGA
self-splicing fitness (ln) (30 °C): -2.58 ± 0.12 | self-splicing fitness (ln) (37 °C): -3.11 ± 0.21

UUAUAGCAAUAUUACGAUGU
self-splicing fitness (ln) (30 °C): -2.57 ± 0.2 | self-splicing fitness (ln) (37 °C): -1.57 ± 0.23

AAAUAGCAAUAUUACGUUAG
self-splicing fitness (ln) (30 °C): -4.15 ± 0.42 | self-splicing fitness (ln) (37 °C): -3.24 ± 0.3

CAACAGCAAUAUUACGACUU
self-splicing fitness (ln) (30 °C): -0.591 ± 0.058 | self-splicing fitness (ln) (37 °C): -0.268 ± 0.074

GCAUAGCAAUAUUACGUCGC
self-splicing fitness (ln) (30 °C): -1.2 ± 0.28 | self-splicing fitness (ln) (37 °C): -2.32 ± 0.45

UACUAGCAAUAUUACGAUAC
self-splicing fitness (ln) (30 °C): -2.63 ± 0.2 | self-splicing fitness (ln) (37 °C): -1.91 ± 0.25

GACCAGCAAUAUUACGAGUG
self-splicing fitness (ln) (30 °C): -0.669 ± 0.055 | self-splicing fitness (ln) (37 °C): -0.33 ± 0.084

CACUAGCAAUAUUACGGUAU
self-splicing fitness (ln) (30 °C): -3.41 ± 0.23 | self-splicing fitness (ln) (37 °C): -0.916 ± 0.13

CGUUAGCAAUAUUACGUGAG
self-splicing fitness (ln) (30 °C): -1.59 ± 0.087 | self-splicing fitness (ln) (37 °C): -0.0698 ± 0.13

AUGCAGCAAUAUUACGGCGU
self-splicing fitness (ln) (30 °C): -4.06 ± 0.24 | self-splicing fitness (ln) (37 °C): -1.76 ± 0.2

UGCCAGCAAUAUUACGAGCA
self-splicing fitness (ln) (30 °C): -1.75 ± 0.26 | self-splicing fitness (ln) (37 °C): -0.682 ± 0.27

CGCAAGCAAUAUUACGCUGU
self-splicing fitness (ln) (30 °C): -3.81 ± 0.24 | self-splicing fitness (ln) (37 °C): -1.48 ± 0.16

AUUUAGCAAUAUUACGCCUU
self-splicing fitness (ln) (30 °C): -0.196 ± 0.092 | self-splicing fitness (ln) (37 °C): -0.0916 ± 0.12

UCGAAGCAAUAUUACGCUUC
self-splicing fitness (ln) (30 °C): -3.77 ± 0.25 | self-splicing fitness (ln) (37 °C): -2.38 ± 0.3

UGCGAGCAAUAUUACGUCUG
self-splicing fitness (ln) (30 °C): -1.24 ± 0.1 | self-splicing fitness (ln) (37 °C): -1.36 ± 0.13

CGCUAGCAAUAUUACGGUUG
self-splicing fitness (ln) (30 °C): -2.07 ± 0.055 | self-splicing fitness (ln) (37 °C): -0.803 ± 0.072

GGACAGCAAUAUUACGGUAG
self-splicing fitness (ln) (30 °C): -1.7 ± 0.061 | self-splicing fitness (ln) (37 °C): -1.32 ± 0.073

UGAGAGCAAUAUUACGAAGG
self-splicing fitness (ln) (30 °C): -2.94 ± 0.18 | self-splicing fitness (ln) (37 °C): -1.85 ± 0.27

GGUGAGCAAUAUUACGGCGA
self-splicing fitness (ln) (30 °C): -1.1 ± 0.12 | self-splicing fitness (ln) (37 °C): -1.39 ± 0.14

CCAGAGCAAUAUUACGAGAG
self-splicing fitness (ln) (30 °C): -2.95 ± 0.21 | self-splicing fitness (ln) (37 °C): -1.39 ± 0.23

UAGGAGCAAUAUUACGGUCU
self-splicing fitness (ln) (30 °C): -1.36 ± 0.37

AAAGAGCAAUAUUACGUGUC
self-splicing fitness (ln) (30 °C): -3.42 ± 0.15 | self-splicing fitness (ln) (37 °C): -2.2 ± 0.12

CUGUAGCAAUAUUACGACGA
self-splicing fitness (ln) (30 °C): -1.4 ± 0.19 | self-splicing fitness (ln) (37 °C): -0.118 ± 0.15

CAAAAGCAAUAUUACGCAGA
self-splicing fitness (ln) (30 °C): -2.57 ± 0.25 | self-splicing fitness (ln) (37 °C): -1.49 ± 0.17

UGACAGCAAUAUUACGAAGU
self-splicing fitness (ln) (30 °C): -3.26 ± 0.2 | self-splicing fitness (ln) (37 °C): -2.91 ± 0.28

UGACAGCAAUAUUACGGUCA
self-splicing fitness (ln) (30 °C): -2.97 ± 0.28 | self-splicing fitness (ln) (37 °C): -0.408 ± 0.17

AGUAAGCAAUAUUACGGACG
self-splicing fitness (ln) (30 °C): -0.782 ± 0.093 | self-splicing fitness (ln) (37 °C): -0.415 ± 0.12

CCCGAGCAAUAUUACGUGUU
self-splicing fitness (ln) (30 °C): -3.93 ± 0.15 | self-splicing fitness (ln) (37 °C): -3 ± 0.17

GGCUAGCAAUAUUACGACGG
self-splicing fitness (ln) (30 °C): -3.75 ± 0.37 | self-splicing fitness (ln) (37 °C): -2.18 ± 0.46

CUAAAGCAAUAUUACGUCGA
self-splicing fitness (ln) (37 °C): -1.99 ± 0.2

CGUCAGCAAUAUUACGAUAA
self-splicing fitness (ln) (30 °C): -1.1 ± 0.14 | self-splicing fitness (ln) (37 °C): 0.157 ± 0.12

UAGUAGCAAUAUUACGCCUG
self-splicing fitness (ln) (30 °C): -0.198 ± 0.12 | self-splicing fitness (ln) (37 °C): -0.437 ± 0.13

GGGUAGCAAUAUUACGGCAG
self-splicing fitness (ln) (30 °C): -3.66 ± 0.4 | self-splicing fitness (ln) (37 °C): -2.62 ± 0.4
